In patent US20140315822A1:

Legend:
[1] = molecular target: T1, PDZ domain of the human PTPN4 protein (human), P29074; experiment: method not restated in the table; ITC per paragraph 50
T1 chain: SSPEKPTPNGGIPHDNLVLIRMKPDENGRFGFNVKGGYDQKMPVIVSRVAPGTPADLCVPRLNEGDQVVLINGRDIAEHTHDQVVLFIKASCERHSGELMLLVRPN

[2] = molecular target: T2, PDZ domain of the human MAST2 protein (human), Q6P0Q8
T2 chain: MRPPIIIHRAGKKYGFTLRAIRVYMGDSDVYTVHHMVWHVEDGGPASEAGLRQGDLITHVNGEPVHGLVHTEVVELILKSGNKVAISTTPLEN

SWESHKSGGETRL (modifications not checked) [ATT13]
Kd [1]: 160 µM
Kd [2]: 570 nM
